“And” between values parts separate entries of the source, which are not always exact repeats. Equal values may be shown once.

The Kd is the equilibrium constant for the complex coming apart. High values mean lower affinity, low ones higher affinity.

Assay [1] has as its target T1, Cynomolgus serum albumin (Cynomolgus monkey, UniProt A2V9Z4 25-608).
T1 construct: mature; purified native protein; coupled to CM5 BIAcore chip; also called cyno SA; CSA
Description: SPR, BIAcore 3000, serum albumin coupled to CM5 chip.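 Note: Cross-reactivity of anti-serum albumin domain antibodies measured against human, cynomolgus monkey, rat and mouse serum albumin, binding kinetics giving Kd.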
Description: (§1) Cross-reactivity of the AlbudAbs™ (ie, anti-serum albumin dAbs) was determined against human, Cynomolgus monkey (cyno), rat and mouse serum albumin using surface plasmon resonance (SPR). In this case, Biacore™ was used. Biacore™ 2000/3000 was used for the supernatant screens and determination of binding kinetic all of dAbs described herein. Biacore™ T100 was used for the determination of cross-reactivity of lead Vk and VH Albudabs to a wider range of species' SAs (12 in total). Protein samples were run on the T100 BIAcore as described for the BIAcore2000/3000 experiments. […] Where appropriate, a kinetic Langmuir 1:1 fitting model was used.

The target in assay [2] is T2, Rat serum albumin (rat, UniProt P02770 25-608).
T2 construct: coupled to CM5 BIAcore chip; also called rat SA; RSA
Described as above.
Description: as §1

The target of assay [3] is T3, Mouse serum albumin (mouse, UniProt P07724 25-608).
T3 construct: mature; bought purified protein; coupled to CM5 BIAcore chip; also called mouse SA; MSA
Described as above.
Description: as §1

Assay [4] deals with T4, Human serum albumin (human, UniProt P02768 25-609).
T4 construct: coupled to CM5 BIAcore chip; also called human SA; HSA
As to the kind of experiment: SPR, BIAcore 3000, serum albumin coupled to CM5 chip;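 note: Cross-reactivity of anti-serum albumin domain antibodies measured against human, cynomolgus monkey, rat and mouse serum albumin, binding kinetics giving Kd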; first of two independent measurements on different protein batches. (In SPR one partner is held on a chip, and binding of the other changes the refractive index at the surface.)
Description: as §1

For assay [5], the target named is T4, Human serum albumin. Description: SPR, BIAcore 3000, serum albumin coupled to CM5 chip; second of two independent measurements on different protein batches.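 Note: Cross-reactivity of anti-serum albumin domain antibodies measured against human, cynomolgus monkey, rat and mouse serum albumin, binding kinetics giving Kd.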
Another assay addresses Rabbit serum albumin (rabbit, UniProt P49065 25-608). As to the kind of experiment: SPR, BIAcore T100.
In assay [6] the target is T4, Human serum albumin. As to the kind of experiment: SPR, BIAcore T100, equilibrium KD.
Description: as §1
For assay [7], the target named is T1, Cynomolgus serum albumin. As to the kind of experiment: SPR, BIAcore T100, equilibrium KD.
Description: as §1
Assay [8] has as its target T2, Rat serum albumin. Description: SPR, BIAcore T100, equilibrium KD.
Description: as §1
In assay [9] the target is T3, Mouse serum albumin. As to the kind of experiment: SPR, BIAcore T100, equilibrium KD.
Description: as §1
In a further assay the target is Marmoset serum albumin (marmoset). Description: SPR, BIAcore T100, equilibrium KD.
In a further assay the target is Dog serum albumin (dog, UniProt P49822 25-608). As to the kind of experiment: SPR, BIAcore T100, equilibrium KD.
For a further assay, the target named is Ferret serum albumin (ferret). As to the kind of experiment: SPR, BIAcore T100, equilibrium KD.
In the next assay the target is Pig serum albumin (pig, UniProt P08835 25-607). Description: SPR, BIAcore T100, equilibrium KD.
In the next assay the target is Mini Pig serum albumin (mini pig). As to the kind of experiment: SPR, BIAcore T100, equilibrium KD.
The target of another assay is Sheep serum albumin (sheep, UniProt P14639 25-607). As to the kind of experiment: SPR, BIAcore T100, equilibrium KD.
Assay [10] concerns the target T4, Human serum albumin. As to the kind of experiment: SPR, BIAcore 3000, serum albumin coupled to CM5 chip.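 Note: Cross-reactivity of anti-serum albumin domain antibodies measured against human, cynomolgus monkey, rat and mouse serum albumin, binding kinetics giving Kd.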
Description: as §1

Description for Dog serum albumin: as §1
Description for Ferret serum albumin: as §1
Description for Marmoset serum albumin: as §1
Description for Mini Pig serum albumin: as §1
Description for Rabbit serum albumin: as §1
Description for Sheep serum albumin: as §1

B1: DOM7r-36-104 (VHH)
VHH: EVQLLESGGGLVQPGGSLRLSCAASGFTFNHYTMGWVRQAPGKGREWVSLIHPSGTVTYYADSVKGRFTISRDNSKNTLYLQMNSLRAEDTAVYYCAKWATRGFDYWGQGTLVTVSS
notes: VH immunoglobulin single variable domain (dAb, AlbudAb), not a camelid VHH; tested with a myc tag; not shown: myc tag
In the case of B1, the dissociation constant (Kd) with Cynomolgus serum albumin [1] is 149 nM and 360 nM; with Rat serum albumin [2], 109 nM and 114 nM; with Mouse serum albumin [3], 184 nM and 313 nM; with Human serum albumin [4] it was 82 nM; with Human serum albumin [5], 9 nM.

B2: DOM7r-36-107 (VHH)
VHH: EVQLLESGGGLVQPGGSLRLSCAASGFTFNHYTMGWVRQAPGKGREWVSLIHPSGTVTYYADSVKGRFTISRDNSKNTLYLQMNSLRAEDTAVYYCAKWEKKYFDYWGQGTLVTVSS
notes: as for B1
As for B2, the binding result with Rabbit serum albumin is given as “no binding (tested: dilution series from 5 uM down to 39 nM)”. Also, the Kd came to 18.3 nM with Human serum albumin [6]; 21.4 nM with Cynomolgus serum albumin [7]; 99.2 nM in the assay with Rat serum albumin [8]; 143 nM with Mouse serum albumin [9]; 111 nM in the assay with Marmoset serum albumin; 719 nM in the assay with Dog serum albumin. Further, the equilibrium dissociation constant (Kd) with Ferret serum albumin is 740 nM; with Pig serum albumin, 818 nM; with Mini Pig serum albumin, 895 nM; in the assay with Sheep serum albumin it was 637 nM; in the assay with Human serum albumin [10], 83.4 nM and 44.5 nM; with Cynomolgus serum albumin [1] it was 127 nM. For the same molecule, the Kd with Rat serum albumin [2] was 97.3 nM and 209 nM; in the assay with Mouse serum albumin [3], 466 nM.
